What was measured:
[1] = exchange reaction dT + C (transfer of deoxyribose), specific activity of N-deoxyribosyl transferases; assay type: biochemical; conditions: for specific activity, dT + C: relative, 100% = specific activity of NTD of L. leichmannii (LL) in dT + C, crude extracts or purified proteins
Procedure: (§1) The cells are then centrifuged at 4000 rpm for 30 minutes at 4° C., the pellet is resuspended in 10 ml of phosphate buffer (Na2HP04+NaH2PO4) at 50 mM (pH=7.5). After centrifugation, the pellet is resuspended in 1 ml of the same buffer. The cells, preserved in ice, are then subjected to three cycles of 30 s of sonication and 30 s of rest. After centrifugation at 12000 rpm for 2×15 minutes at 4° C., the supernatants are recovered and stored at −20° C.
(§2) 50 μl of enzymatic extract is added to 200 μl of 100 mM citrate buffer, pH 6.44, in the presence of 3 mM ddU or dU final and of 1 mM C final for the strain PAK9, the whole is incubated at 37° C. The progress of the reaction is monitored by TLC (silica; eluent: MeOH—CH2Cl2 (20/80)). […] The disappearance of the substrates and the formation of the products were also quantified by HPLC analysis. The different products are separated by analytical HPLC with a reversed-phase column (100-5C18) using a flow rate of 1 ml/min and a linear gradient of 5-25% CH3CN in a 10 mM triethyl ammonium acetate buffer at pH 7.5 for 20 minutes.
(§3) The cells are then centrifuged for 15′ at 4000 rpm at 4° C., washed in 50 ml of phosphate buffer then the pellet obtained after centrifugation is preserved overnight at −20° C. The bacterial pellet resuspended in 20 ml of phosphate buffer is then lysed by passage through a French press at 14000 psi. The lysate is centrifuged for 90′ at 50,000 rpm. The supernatant containing the soluble proteins is then precipitated with ammonium sulphate (40% saturation). […] The fractions are then analyzed by SDS-PAGE gel and the enzymatic activity determined. […] The protein concentration is determined by measuring the OD at 280 nm. […]
(§4) The enzymatic activities of the native and mutant N-deoxyribosyl transferases of L. leichmannii (LL and LL G9S) and of L. fermentum (LF and LFA15T) in the exchange reactions dT+C ? dC+T, ddT+C ? ddC+T and d4T+C ? d4C+T were evaluated starting from crude extracts or purified proteins.

[2] = exchange reaction d4T + C (transfer of didehydroribose), specific activity of N-deoxyribosyl transferases; assay type: biochemical; conditions: for specific activity, d4T + C: relative, 100% = specific activity of NTD of L. leichmannii (LL) in dT + C, crude extracts or purified proteins
Procedure: as §1, §2, §3, §4

[3] = substrate: Cc1cn([C@H]2C[C@H](O)[C@@H](CO)O2)c(=O)[nH]c1=O; assay: Enzymatic activity tests (dT+C, ddT+C and d4T+C reactions), native enzyme LF; assay type: biochemical, Lactobacillus fermentum; conditions: other: native LF; deoxyribosyl donor + C (cytosine); 37.0 °C
Procedure: as §2
(§5) were used as primer in an amplification reaction under standard conditions using the ntd gene of L. fermentum cloned in pSU19 (pLF6) as DNA matrix. The amplification product was digested by the restriction enzymes Nde1 and BamH1 for 2 hours at 37° C., purified on agarose gel and inserted into the plasmid pET24a digested by the same enzymes then the ligation mixture is used to transform the strain β 2033. The plasmid DNA from the colonies was prepared and digested by the enzymes Nde1 and BamH1. Those, the sequence of which was correct, were used to transform the strain BL21 (DE3)/plysS (Novagen). The plasmid DNA of the mutant pSU19NLFA15T selected previously was prepared then digested by the enzymes Nde1 and BamH1. The corresponding fragment Nde1-BamH1 was then inserted into the plasmid pET24a digested by the same enzymes in order to produce the expression plasmid pETLFA15T useful to the expression of the mutated protein. A strain of E. coli transformed using the plasmid pETLFA15T was deposited at the CNCM (INSTITUT PASTEUR, 25 rue du Docteur Roux, F-75724 PARIS Cedex 15) on 22 Mar. 2004 under accession number I-3192. The overproduction of the two N-deoxyribosyl transferases, native and mutated, was obtained from cultures of this strain in 500 ml of LB medium supplemented with Km and Cm. These cultures were induced at an OD600=0.6 by the addition of IPTG (0.4 mM), the incubation being continued for 2 hours 30 minutes at 37° C.
(§6) The cells are then centrifuged for 15′ at 4000 rpm at 4° C., washed in 50 ml of phosphate buffer then the pellet obtained after centrifugation is preserved overnight at −20° C. The bacterial pellet resuspended in 20 ml of phosphate buffer is then lysed by passage through a French press at 14000 psi. The lysate is centrifuged for 90′ at 50,000 rpm. The supernatant containing the soluble proteins is then precipitated with ammonium sulphate (40% saturation). The precipitate obtained after centrifugation at 13900 rpm (20,000 g) for 30′ at 4° C. is resuspended in 1 ml of 100 mM phosphate buffer, pH 7.5, 1.5 M NaCl, then deposited on a Sephacryl S200 gel filtration column (Amersham-Pharmacia). The fractions are then analyzed by SDS-PAGE gel and the enzymatic activity determined. […] The protein concentration is determined by measuring the OD at 280 nm.
(§7) The measurement of the enzymatic activities is carried out as described in paragraph 4.2.
as §4
(§8) These different values were measured according to the protocol described in the literature [P A Kaminski (2002) “Functional cloning, heterologous expression and purification of two different N-deoxyribosyl transferases from Lactobacillus helveticus” J. Biol. Chem; vol. 277; 14400-14407]. […] The activities are increased respectively by 60% and 54%.

[4] = substrate: Cc1cn([C@H]2CC[C@@H](CO)O2)c(=O)[nH]c1=O; assay: as above; assay type: biochemical, Lactobacillus fermentum; conditions: other: native LF; deoxyribosyl donor + C (cytosine); 37.0 °C
Procedure: as §2, §5, §6, §7, §4, §8

[5] = substrate: Cc1cn([C@H]2C=C[C@@H](CO)O2)c(=O)[nH]c1=O; assay: as above; assay type: biochemical, Lactobacillus fermentum; conditions: other: native LF; deoxyribosyl donor + C (cytosine); 37.0 °C
Procedure: as §2, §5, §6, §7, §4, §8

[6] = exchange reaction ddT + C (transfer of dideoxyribose), specific activity of N-deoxyribosyl transferases; assay type: biochemical; conditions: for specific activity, ddT + C: relative, 100% = specific activity of NTD of L. leichmannii (LL) in dT + C, crude extracts or purified proteins
Procedure: as §1, §2, §3, §4

[7] = substrate: Cc1cn([C@H]2C[C@H](O)[C@@H](CO)O2)c(=O)[nH]c1=O; assay: Enzymatic activity tests (dT+C, ddT+C and d4T+C reactions), mutated enzyme LFA15T; assay type: biochemical, Lactobacillus fermentum; conditions: other: mutant LFA15T; deoxyribosyl donor + C (cytosine); 37.0 °C
Procedure: (§9) The sequencing of the plasmids present in the selected transformants of PAK 9 made it possible to identify a mutation in the sequence (ntd) having the effect of substituting a residue T for the residue A in position 15 in the corresponding protein sequence (SEQ ID No. 2) (mutation called A15T).
as §2
as §5, with “A strain of E. coli transformed using the plasmid pETLFA15T was deposited at the CNCM (INSTITUT PASTEUR, 25 rue du Docteur Roux, F-75724 PARIS Cedex 15) on 22 Mar. 2004 under accession number I-3192. The overproduction of the two N-deoxyribosyl transferases, native and mutated, was obtained from cultures of this strain in 500 ml of LB medium supplemented with Km and Cm. These cultures were induced at an OD600=0.6 by the addition of IPTG (0.4 mM), the incubation being continued for 2 hours 30 minutes at 37° C.” left out
(§10) The cells are then centrifuged for 15′ at 4000 rpm at 4° C., washed in 50 ml of phosphate buffer then the pellet obtained after centrifugation is preserved overnight at −20° C. […] The fractions are then analyzed by SDS-PAGE gel and the enzymatic activity determined. […] The protein concentration is determined by measuring the OD at 280 nm. […]
as §4
(§11) These different values were measured according to the protocol described in the literature [P A Kaminski (2002) “Functional cloning, heterologous expression and purification of two different N-deoxyribosyl transferases from Lactobacillus helveticus” J. Biol. Chem; vol. […]

[8] = substrate: Cc1cn([C@H]2CC[C@@H](CO)O2)c(=O)[nH]c1=O; assay: as above; assay type: biochemical, Lactobacillus fermentum; conditions: other: mutant LFA15T; deoxyribosyl donor + C (cytosine); 37.0 °C
Procedure: as §9, §2
as §5, with “A strain of E. coli transformed using the plasmid pETLFA15T was deposited at the CNCM (INSTITUT PASTEUR, 25 rue du Docteur Roux, F-75724 PARIS Cedex 15) on 22 Mar. 2004 under accession number I-3192. The overproduction of the two N-deoxyribosyl transferases, native and mutated, was obtained from cultures of this strain in 500 ml of LB medium supplemented with Km and Cm. These cultures were induced at an OD600=0.6 by the addition of IPTG (0.4 mM), the incubation being continued for 2 hours 30 minutes at 37° C.” left out
as §10, §4, §11

[9] = enzymatic activity test (kinetic constants), d4T+C reaction; assay type: biochemical
Procedure: as §8

[10] = enzymatic activity test (kinetic constants), ddT+C reaction; assay type: biochemical
Procedure: as §8

[11] = catalytic effectiveness Kcat/Km
[12] = mutated enzyme versus native enzyme
[13] = mutant LFA15T versus native enzyme LF

Row | times more effective than native enzyme LF, d4T+X exchange [9, 11] | times more effective than native enzyme LF, ddT+X exchange [10, 11] | Molecule | specific activity, dT + C [1] | specific activity, d4T + C [2] | Km [3] | Vmax [3] | Km [4] | Vmax [4] | Km [5] | Vmax [5] | specific activity, ddT + C [6] | Km [7] | Vmax [7] | Km [8] | Vmax [8] | increase of catalytic activity on d4T [9, 12] | increase of catalytic activity on ddT [10, 12] | factor by which activity is reduced, transfer of deoxyribose [1, 13] | factor by which activity is increased, transfer of didehydroribose [2, 13] | factor by which activity is increased, transfer of dideoxyribose [6, 13]
1 |  |  | Lactobacillus fermentum N-deoxyribosyl transferase (NTD, LF), native/wild type, SEQ ID No. 2 (Limosilactobacillus fermentum) (protein, crude extract or purified) MKNTDPVANTKIYLATSFFNEEQRARIPQALAQLEANPTVGVVHQPFDFQYKDARVDSDPAGVFGSLEWQIATYNNDLNAVGTSDVCVALYDMDQIDEGICMEIGMFVALHKPIVLLPFTKKDKSAYEANLMLARGVTTWLEPNDFSPLKDFNFNHPMAQPFPPFKVF | 76.5% | 2.1% | 124 µM | 6.65 µmol/s | 80 µM | 5.7 µmol/s | 1250 µM | 24 µmol/s | 0.9% |  |  |  |  |  |  |  |  | 
2 | 7.5 times | 60 times | Lactobacillus fermentum N-deoxyribosyl transferase (NTD) variant LFA15T, mutation A15T, SEQ ID No. 4 (Limosilactobacillus fermentum; A15T) (protein, crude extract or purified) MKNTDPVANTKIYLTTSFFNEEQRARIPQALAQLEANPTVGVVHQPFDFQYKDARVDSDPAGVFGSLEWQIATYNNDLNAVGTSDVCVALYDMDQIDEGICMEIGMFVALHKPIVLLPFTKKDKSAYEANLMLARGVTTWLEPNDFSPLKDFNFNHPMAQPFPPFKVF | 10.7% | 73.5% |  |  |  |  |  |  | 2.5% | 371 µM | 9.7 µmol/s | 53 µM | 7.8 µmol/s | 60% | 54% | 7 | 35 | 3

Source: patent US7820795B2, “Lactobacillus fermentum N-desoxyribosyl transferases and the use thereof for enzymatic synthesis of 2′, 3′—didesoxynucleosides and 2′,3′- didehydro-2′,3′- didesoxynucleosides” (Institut Pasteur, priority 2004, dated 2010)
